Experimental data from the supplement of paper PMC7877785.
± gives the uncertainty stated by the source.

Test: self-splicing fitness, log relative to wild type (ln ratio); higher = more splicing; Tetrahymena group I intron in knt gene, E. coli kanamycin selection, DiMSum; sequences stand for … in CUCUCU…GGAGGGAAAAGUUAUCAGGCAUGCACCUGGUAGCUAGUCUUUAAACCAAUAGAUUGCAUCGGUUUAAAAGGCAAGACCGUCAAAUUGCGGGAAAGGGGUCAACAGCCGUUCAGUACCAAGUCUCAGGGGAAACUUUGAGAUGGCCUUGCAAAGGGUAUGGUAAUAAGCUGACGGACAUGGUCCUAACCACGCAGCCAAGUCCUAAGUCAACAGAUCUUCUGUUGAUAUGGAUGCAGUUCACAGACUAAAUGUCGGUCGGGGAAGAUGUAUUCUUCUCAUAAGAUAUAGUCGGACCUCUCCUUAAUGGGAGCUAGCGGAUGAAGUGAUGCAACACUGGAGCCGCUGGGAACUAAUUUGUAUGCGAAAGUAUAUUGAUUAGUUUUGGAGUACUCGUGGUCG
Procedure, shortened: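 The eight P1ex-region nucleotides of an intron in the knt kanamycin-resistance gene on pET-22b(+) were all randomised and the library put into E. coli BL21(DE3). Six replicate transformations were grown overnight at 37°C or 30°C on LB agar with or without 25 μg/mL kanamycin, together with 100 μg/mL carbenicillin, 50 μM IPTG and 0.2% rhamnose. Colonies were pooled and amplicon-sequenced on an Illumina HiSeq 2500. Fitness from DiMSum is the error-weighted combination of wild-type-normalised replicate fold changes, kanamycin over none.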

| Sequence | self-splicing fitness (ln) (30 °C) | self-splicing fitness (ln) (37 °C) |
| --- | --- | --- |
| UUAAAGCAAUAUUACGGGGA | -1.02 ± 0.068 | 0.216 ± 0.1 |
| UUAAAGCAAUAUUACGGGGC | -3.68 ± 0.25 | -2.51 ± 0.32 |
| UUAAAGCAAUAUUACGGUCG | 0.224 ± 0.082 | 0.441 ± 0.095 |
| UUAAAGCAAUAUUACGGUUC | -3.46 ± 0.19 | -1.81 ± 0.18 |
| UUAAAGCAAUAUUACGUACA | 0.237 ± 0.088 | 0.0455 ± 0.12 |
| UUAAAGCAAUAUUACGUACC | -1.73 ± 0.12 | -0.333 ± 0.16 |
| UUAAAGCAAUAUUACGUAGC | -4.43 ± 0.3 | -2.96 ± 0.48 |
| UUAAAGCAAUAUUACGUCAA | -0.222 ± 0.082 | -0.107 ± 0.095 |
| UUAAAGCAAUAUUACGUCCA | -0.0955 ± 0.086 | 0.343 ± 0.11 |
| UUAAAGCAAUAUUACGUCGA | 0.349 ± 0.082 | 0.262 ± 0.095 |
| UUAAAGCAAUAUUACGUUCU | -1.08 ± 0.091 | -0.401 ± 0.12 |
| UUAAAGCAAUAUUACGUUGC | -3.24 ± 0.28 | -2.66 ± 0.3 |
| UUACAGCAAUAUUACGACAA | -0.25 ± 0.07 | 0.353 ± 0.083 |
| UUACAGCAAUAUUACGACGU | -3.61 ± 0.31 | -3.23 ± 0.4 |
| UUACAGCAAUAUUACGAUCU | -1.88 ± 0.063 | -1.02 ± 0.079 |
| UUACAGCAAUAUUACGCAUC | -3.36 ± 0.15 | -1.6 ± 0.13 |
| UUACAGCAAUAUUACGCCUG | -0.557 ± 0.054 | 0.0548 ± 0.081 |
| UUACAGCAAUAUUACGCGGC | -2.62 ± 0.14 | -2.03 ± 0.18 |
| UUACAGCAAUAUUACGCUGC | -2.9 ± 0.35 | – |
| UUACAGCAAUAUUACGGAGU | -4.03 ± 0.29 | -2.7 ± 0.22 |
| UUACAGCAAUAUUACGGCCG | -0.529 ± 0.16 | -0.389 ± 0.16 |

| Sequence | self-splicing fitness (ln) (30 °C) | self-splicing fitness (ln) (37 °C) |
| --- | --- | --- |
| UUACAGCAAUAUUACGGCUG | -2.21 ± 0.17 | -1.42 ± 0.2 |
| UUACAGCAAUAUUACGUAAU | -3.27 ± 0.26 | -2.32 ± 0.19 |
| UUACAGCAAUAUUACGUACC | -1.19 ± 0.21 | -0.649 ± 0.33 |
| UUACAGCAAUAUUACGUGCC | -2.86 ± 0.15 | -0.031 ± 0.13 |
| UUAGAGCAAUAUUACGAAUG | -2.2 ± 0.14 | -2.55 ± 0.26 |
| UUAGAGCAAUAUUACGACGG | 0.111 ± 0.12 | -7.81e-05 ± 0.19 |
| UUAGAGCAAUAUUACGAUGC | -2.04 ± 0.21 | -2.57 ± 0.41 |
| UUAGAGCAAUAUUACGCAGA | 1.56 ± 0.32 | – |
| UUAGAGCAAUAUUACGCAGG | -2.7 ± 0.2 | -0.784 ± 0.16 |
| UUAGAGCAAUAUUACGCGUA | -1.59 ± 0.11 | -0.559 ± 0.13 |
| UUAGAGCAAUAUUACGCUAG | -0.574 ± 0.12 | 0.349 ± 0.15 |
| UUAGAGCAAUAUUACGCUAU | -2.27 ± 0.23 | -1.75 ± 0.26 |
| UUAGAGCAAUAUUACGCUCA | -1.75 ± 0.18 | -0.916 ± 0.26 |
| UUAGAGCAAUAUUACGGAGG | -2.3 ± 0.13 | -1.84 ± 0.18 |
| UUAGAGCAAUAUUACGGCCA | -1.02 ± 0.34 | 0.756 ± 0.35 |
| UUAGAGCAAUAUUACGGCCU | -4.22 ± 0.39 | – |
| UUAGAGCAAUAUUACGGCUG | -0.433 ± 0.12 | 0.354 ± 0.17 |
| UUAGAGCAAUAUUACGGGAG | -2.32 ± 0.15 | -1.32 ± 0.18 |
| UUAGAGCAAUAUUACGGGGA | -2.48 ± 0.21 | -1 ± 0.2 |
| UUAGAGCAAUAUUACGGGUA | -3.06 ± 0.22 | -1.62 ± 0.19 |
| UUAGAGCAAUAUUACGGUUC | -2.42 ± 0.4 | – |

| Sequence | self-splicing fitness (ln) (30 °C) | self-splicing fitness (ln) (37 °C) |
| --- | --- | --- |
| UUAGAGCAAUAUUACGUAUG | -1.6 ± 0.085 | -1.31 ± 0.12 |
| UUAGAGCAAUAUUACGUCAC | – | -2.76 ± 0.48 |
| UUAGAGCAAUAUUACGUCAU | -3.46 ± 0.31 | -2.25 ± 0.33 |
| UUAGAGCAAUAUUACGUCGA | -1.18 ± 0.12 | 0.172 ± 0.14 |
| UUAGAGCAAUAUUACGUGAA | -2.16 ± 0.12 | -0.588 ± 0.13 |
| UUAGAGCAAUAUUACGUGCC | – | -1.58 ± 0.33 |
| UUAUAGCAAUAUUACGAACU | -2.51 ± 0.18 | -0.944 ± 0.18 |
| UUAUAGCAAUAUUACGAAGC | -2.27 ± 0.42 | – |
| UUAUAGCAAUAUUACGACCU | -3.38 ± 0.29 | -0.509 ± 0.18 |
| UUAUAGCAAUAUUACGACGA | -0.378 ± 0.098 | 0.212 ± 0.1 |
| UUAUAGCAAUAUUACGACUU | -1.85 ± 0.28 | -0.00223 ± 0.29 |
| UUAUAGCAAUAUUACGAUUC | -2.51 ± 0.27 | -1.17 ± 0.31 |
| UUAUAGCAAUAUUACGCAAC | -1.99 ± 0.34 | -1.6 ± 0.2 |
| UUAUAGCAAUAUUACGCAUA | -2.43 ± 0.29 | -0.953 ± 0.18 |
| UUAUAGCAAUAUUACGCGGG | -1.86 ± 0.17 | -1.92 ± 0.3 |
| UUAUAGCAAUAUUACGCUAU | -3.51 ± 0.44 | -4.04 ± 0.46 |
| UUAUAGCAAUAUUACGCUGG | -1.35 ± 0.14 | -0.828 ± 0.12 |
| UUAUAGCAAUAUUACGCUUC | -3.49 ± 0.32 | -3.42 ± 0.43 |
| UUAUAGCAAUAUUACGGAGG | -1.68 ± 0.31 | -2.37 ± 0.32 |
| UUAUAGCAAUAUUACGGAUA | -2.21 ± 0.32 | -0.955 ± 0.19 |
